Values of other authors as cited in US20080070838A1, “Growth Factor Treatment for Asthma” (University of Southampton, priority 2004, published 2008).

Test system: airway fibrosis
Settings: mouse, in vivo

TGFα: structural homologue of EGF and a ligand for the EGF receptor
airway fibrosis: marked airway fibrosis
